Starred links: 1 amine or outer side, 2 acyl side, 3 side chain; linkers in the order of their positions; H or OH if unused. Non-standard residues stand in square brackets, D forms with d. Groups on a side chain read outwards from the residue. No end group written: not given here. *: point of attachment. C20 diacid = O=C(O)CCCCCCCCCCCCCCCCCCC(=O)*; C18 diacid = O=C(O)CCCCCCCCCCCCCCCCC(=O)*; γGlu = O=C(O)[C@H](CCC(=O)[*:2])N[*:1]; αMeF = C[C@](N)(Cc1ccccc1)C(=O)O; AEEA = NCCOCCOCC(=O)O; Aib = CC(C)(N)C(=O)O
B1: Peptide 145 (peptide)
peptide: H[Aib]QGTFTSDVSK[αMeF]LDSK([AEEA-AEEA-γGlu-C18 diacid])RAQDFVRWLASRGI-OH
modifications: N-terminus assumed
SMILES: CC[C@H](C)[C@H](NC(=O)CNC(=O)[C@H](CCCNC(=N)N)NC(=O)[C@H](CO)NC(=O)[C@H](C)NC(=O)[C@H](CC(C)C)NC(=O)[C@H](Cc1c[nH]c2ccccc12)NC(=O)[C@H](CCCNC(=N)N)NC(=O)[C@@H](NC(=O)[C@H](Cc1ccccc1)NC(=O)[C@H](CC(=O)O)NC(=O)[C@H](CCC(N)=O)NC(=O)[C@H](C)NC(=O)[C@H](CCCNC(=N)N)NC(=O)[C@H](CCCCNC(=O)COCCOCCNC(=O)COCCOCCNC(=O)CC[C@H](NC(=O)CCCCCCCCCCCCCCCCC(=O)O)C(=O)O)NC(=O)[C@H](CO)NC(=O)[C@H](CC(=O)O)NC(=O)[C@H](CC(C)C)NC(=O)[C@](C)(Cc1ccccc1)NC(=O)[C@H](CCCCN)NC(=O)[C@H](CO)NC(=O)[C@@H](NC(=O)[C@H](CC(=O)O)NC(=O)[C@H](CO)NC(=O)[C@@H](NC(=O)[C@H](Cc1ccccc1)NC(=O)[C@@H](NC(=O)CNC(=O)[C@H](CCC(N)=O)NC(=O)C(C)(C)NC(=O)[C@@H](N)Cc1c[nH]cn1)[C@@H](C)O)[C@@H](C)O)C(C)C)C(C)C)C(=O)O
B2: Peptide 146 (peptide)
peptide: H[Aib]QGTFTSDVSK[αMeF]LDSK([AEEA-AEEA-γGlu-C18 diacid])RAQDFVRWLASR-OH
modifications: N-terminus assumed
SMILES: CC(C)C[C@H](NC(=O)[C@H](Cc1c[nH]c2ccccc12)NC(=O)[C@H](CCCNC(=N)N)NC(=O)[C@@H](NC(=O)[C@H](Cc1ccccc1)NC(=O)[C@H](CC(=O)O)NC(=O)[C@H](CCC(N)=O)NC(=O)[C@H](C)NC(=O)[C@H](CCCNC(=N)N)NC(=O)[C@H](CCCCNC(=O)COCCOCCNC(=O)COCCOCCNC(=O)CC[C@H](NC(=O)CCCCCCCCCCCCCCCCC(=O)O)C(=O)O)NC(=O)[C@H](CO)NC(=O)[C@H](CC(=O)O)NC(=O)[C@H](CC(C)C)NC(=O)[C@](C)(Cc1ccccc1)NC(=O)[C@H](CCCCN)NC(=O)[C@H](CO)NC(=O)[C@@H](NC(=O)[C@H](CC(=O)O)NC(=O)[C@H](CO)NC(=O)[C@@H](NC(=O)[C@H](Cc1ccccc1)NC(=O)[C@@H](NC(=O)CNC(=O)[C@H](CCC(N)=O)NC(=O)C(C)(C)NC(=O)[C@@H](N)Cc1c[nH]cn1)[C@@H](C)O)[C@@H](C)O)C(C)C)C(C)C)C(=O)N[C@@H](C)C(=O)N[C@@H](CO)C(=O)N[C@@H](CCCNC(=N)N)C(=O)O
B3: Peptide 144 (peptide)
peptide: H[Aib]QGTFTSDVSK[αMeF]LDSK([γGlu-γGlu-AEEA-AEEA-γGlu-γGlu-C18 diacid])RARDFVRWLLE[Aib]G-OH
modifications: N-terminus assumed
SMILES: CC(C)C[C@H](NC(=O)[C@H](Cc1c[nH]c2ccccc12)NC(=O)[C@H](CCCNC(=N)N)NC(=O)[C@@H](NC(=O)[C@H](Cc1ccccc1)NC(=O)[C@H](CC(=O)O)NC(=O)[C@H](CCCNC(=N)N)NC(=O)[C@H](C)NC(=O)[C@H](CCCNC(=N)N)NC(=O)[C@H](CCCCNC(=O)CC[C@H](NC(=O)CC[C@H](NC(=O)COCCOCCNC(=O)COCCOCCNC(=O)CC[C@H](NC(=O)CC[C@H](NC(=O)CCCCCCCCCCCCCCCCC(=O)O)C(=O)O)C(=O)O)C(=O)O)C(=O)O)NC(=O)[C@H](CO)NC(=O)[C@H](CC(=O)O)NC(=O)[C@H](CC(C)C)NC(=O)[C@](C)(Cc1ccccc1)NC(=O)[C@H](CCCCN)NC(=O)[C@H](CO)NC(=O)[C@@H](NC(=O)[C@H](CC(=O)O)NC(=O)[C@H](CO)NC(=O)[C@@H](NC(=O)[C@H](Cc1ccccc1)NC(=O)[C@@H](NC(=O)CNC(=O)[C@H](CCC(N)=O)NC(=O)C(C)(C)NC(=O)[C@@H](N)Cc1c[nH]cn1)[C@@H](C)O)[C@@H](C)O)C(C)C)C(C)C)C(=O)N[C@@H](CC(C)C)C(=O)N[C@@H](CCC(=O)O)C(=O)NC(C)(C)C(=O)NCC(=O)O
B4: Peptide 143 (peptide)
peptide: H[Aib]QGTFTSDVSK[αMeF]LDSK([AEEA-AEEA-γGlu-C18 diacid])RARDFVQWLLE[Aib]G-OH
modifications: N-terminus assumed
SMILES: CC(C)C[C@H](NC(=O)[C@H](Cc1c[nH]c2ccccc12)NC(=O)[C@H](CCC(N)=O)NC(=O)[C@@H](NC(=O)[C@H](Cc1ccccc1)NC(=O)[C@H](CC(=O)O)NC(=O)[C@H](CCCNC(=N)N)NC(=O)[C@H](C)NC(=O)[C@H](CCCNC(=N)N)NC(=O)[C@H](CCCCNC(=O)COCCOCCNC(=O)COCCOCCNC(=O)CC[C@H](NC(=O)CCCCCCCCCCCCCCCCC(=O)O)C(=O)O)NC(=O)[C@H](CO)NC(=O)[C@H](CC(=O)O)NC(=O)[C@H](CC(C)C)NC(=O)[C@](C)(Cc1ccccc1)NC(=O)[C@H](CCCCN)NC(=O)[C@H](CO)NC(=O)[C@@H](NC(=O)[C@H](CC(=O)O)NC(=O)[C@H](CO)NC(=O)[C@@H](NC(=O)[C@H](Cc1ccccc1)NC(=O)[C@@H](NC(=O)CNC(=O)[C@H](CCC(N)=O)NC(=O)C(C)(C)NC(=O)[C@@H](N)Cc1c[nH]cn1)[C@@H](C)O)[C@@H](C)O)C(C)C)C(C)C)C(=O)N[C@@H](CC(C)C)C(=O)N[C@@H](CCC(=O)O)C(=O)NC(C)(C)C(=O)NCC(=O)O
B5: Peptide 141 (peptide)
peptide: H[Aib]QGTFTSDVSK[αMeF]LDSK([AEEA-AEEA-γGlu-C18 diacid])RAQDFVAWLLE[Aib]G-OH
modifications: N-terminus assumed
SMILES: CC(C)C[C@H](NC(=O)[C@H](Cc1c[nH]c2ccccc12)NC(=O)[C@H](C)NC(=O)[C@@H](NC(=O)[C@H](Cc1ccccc1)NC(=O)[C@H](CC(=O)O)NC(=O)[C@H](CCC(N)=O)NC(=O)[C@H](C)NC(=O)[C@H](CCCNC(=N)N)NC(=O)[C@H](CCCCNC(=O)COCCOCCNC(=O)COCCOCCNC(=O)CC[C@H](NC(=O)CCCCCCCCCCCCCCCCC(=O)O)C(=O)O)NC(=O)[C@H](CO)NC(=O)[C@H](CC(=O)O)NC(=O)[C@H](CC(C)C)NC(=O)[C@](C)(Cc1ccccc1)NC(=O)[C@H](CCCCN)NC(=O)[C@H](CO)NC(=O)[C@@H](NC(=O)[C@H](CC(=O)O)NC(=O)[C@H](CO)NC(=O)[C@@H](NC(=O)[C@H](Cc1ccccc1)NC(=O)[C@@H](NC(=O)CNC(=O)[C@H](CCC(N)=O)NC(=O)C(C)(C)NC(=O)[C@@H](N)Cc1c[nH]cn1)[C@@H](C)O)[C@@H](C)O)C(C)C)C(C)C)C(=O)N[C@@H](CC(C)C)C(=O)N[C@@H](CCC(=O)O)C(=O)NC(C)(C)C(=O)NCC(=O)O
B6: Peptide 142 (peptide)
peptide: H[Aib]QGTFTSDVSK[αMeF]LDSK([AEEA-AEEA-γGlu-C18 diacid])RARDFVAWLLE[Aib]G-OH
modifications: N-terminus assumed
SMILES: CC(C)C[C@H](NC(=O)[C@H](Cc1c[nH]c2ccccc12)NC(=O)[C@H](C)NC(=O)[C@@H](NC(=O)[C@H](Cc1ccccc1)NC(=O)[C@H](CC(=O)O)NC(=O)[C@H](CCCNC(=N)N)NC(=O)[C@H](C)NC(=O)[C@H](CCCNC(=N)N)NC(=O)[C@H](CCCCNC(=O)COCCOCCNC(=O)COCCOCCNC(=O)CC[C@H](NC(=O)CCCCCCCCCCCCCCCCC(=O)O)C(=O)O)NC(=O)[C@H](CO)NC(=O)[C@H](CC(=O)O)NC(=O)[C@H](CC(C)C)NC(=O)[C@](C)(Cc1ccccc1)NC(=O)[C@H](CCCCN)NC(=O)[C@H](CO)NC(=O)[C@@H](NC(=O)[C@H](CC(=O)O)NC(=O)[C@H](CO)NC(=O)[C@@H](NC(=O)[C@H](Cc1ccccc1)NC(=O)[C@@H](NC(=O)CNC(=O)[C@H](CCC(N)=O)NC(=O)C(C)(C)NC(=O)[C@@H](N)Cc1c[nH]cn1)[C@@H](C)O)[C@@H](C)O)C(C)C)C(C)C)C(=O)N[C@@H](CC(C)C)C(=O)N[C@@H](CCC(=O)O)C(=O)NC(C)(C)C(=O)NCC(=O)O
B7: Peptide 138 (peptide)
peptide: H[Aib]QGTFTSDVSK[αMeF]LDSK([γGlu-γGlu-AEEA-AEEA-γGlu-γGlu-C18 diacid])RAQDFVRWLLE[Aib]G-OH
modifications: N-terminus assumed
SMILES: CC(C)C[C@H](NC(=O)[C@H](Cc1c[nH]c2ccccc12)NC(=O)[C@H](CCCNC(=N)N)NC(=O)[C@@H](NC(=O)[C@H](Cc1ccccc1)NC(=O)[C@H](CC(=O)O)NC(=O)[C@H](CCC(N)=O)NC(=O)[C@H](C)NC(=O)[C@H](CCCNC(=N)N)NC(=O)[C@H](CCCCNC(=O)CC[C@H](NC(=O)CC[C@H](NC(=O)COCCOCCNC(=O)COCCOCCNC(=O)CC[C@H](NC(=O)CC[C@H](NC(=O)CCCCCCCCCCCCCCCCC(=O)O)C(=O)O)C(=O)O)C(=O)O)C(=O)O)NC(=O)[C@H](CO)NC(=O)[C@H](CC(=O)O)NC(=O)[C@H](CC(C)C)NC(=O)[C@](C)(Cc1ccccc1)NC(=O)[C@H](CCCCN)NC(=O)[C@H](CO)NC(=O)[C@@H](NC(=O)[C@H](CC(=O)O)NC(=O)[C@H](CO)NC(=O)[C@@H](NC(=O)[C@H](Cc1ccccc1)NC(=O)[C@@H](NC(=O)CNC(=O)[C@H](CCC(N)=O)NC(=O)C(C)(C)NC(=O)[C@@H](N)Cc1c[nH]cn1)[C@@H](C)O)[C@@H](C)O)C(C)C)C(C)C)C(=O)N[C@@H](CC(C)C)C(=O)N[C@@H](CCC(=O)O)C(=O)NC(C)(C)C(=O)NCC(=O)O

Target: human GLP-1 receptor (hGLP-1R) (human, UniProt P43220 24-463)
Assay: cell-based or functional assay

Row | hGLP-1R EC50 (pM) | Binder
1 | 630 pM | H[Aib]QGTFTSDVSK[αMeF]LDSK([γGlu-γGlu-AEEA-AEEA-γGlu-γGlu-C20 diacid])RAQDFVRWLLE[Aib]G-OH [Peptide 139]
2 | 22.6 pM | B1
3 | 24.6 pM | B2
4 | 45.2 pM | B3
5 | 19.1 pM | B4
6 | 264 pM | B5
7 | 59.4 pM | B6
8 | 104 pM | B7

Target: human glucagon receptor (hGCGR) (human, UniProt P47871 26-477)
Sequence (P47871 26-477): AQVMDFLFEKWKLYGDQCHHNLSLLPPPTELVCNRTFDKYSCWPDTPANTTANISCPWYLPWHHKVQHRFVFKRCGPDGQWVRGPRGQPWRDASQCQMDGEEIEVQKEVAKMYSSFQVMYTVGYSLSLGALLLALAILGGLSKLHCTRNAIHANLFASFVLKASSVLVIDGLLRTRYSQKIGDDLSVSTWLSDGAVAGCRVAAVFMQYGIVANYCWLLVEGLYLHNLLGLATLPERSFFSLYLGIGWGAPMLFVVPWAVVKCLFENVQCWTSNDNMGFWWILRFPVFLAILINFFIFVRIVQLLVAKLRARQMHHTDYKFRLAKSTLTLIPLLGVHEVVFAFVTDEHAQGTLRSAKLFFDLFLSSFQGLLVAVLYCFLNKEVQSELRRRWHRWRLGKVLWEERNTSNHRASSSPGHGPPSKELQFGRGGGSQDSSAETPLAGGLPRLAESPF
Assay: cell-based or functional assay

Row | hGluc-R EC50 (pM) | Binder
9 | 984 pM | H[Aib]QGTFTSDVSK[αMeF]LDSK([γGlu-γGlu-AEEA-AEEA-γGlu-γGlu-C20 diacid])RAQDFVRWLLE[Aib]G-OH [Peptide 139]
10 | 4590 pM | B1
11 | 1630 pM | B2
12 | 702 pM | B3
13 | 32.6 pM | B4
14 | 392 pM | B5
15 | 108 pM | B6
16 | 184 pM | B7
